Assay results: paper PMC3892207 (Journal of the American Chemical Society, 2013)

Experiments:
Test in all cases: SEC
[1] = target: T1, S100A9(C3S) with H105A (S100A9 subunit of CP-Ser(H105A)) (human, UniProt P06702 1-114, C3S | H105A)
T1 sequence (looked up): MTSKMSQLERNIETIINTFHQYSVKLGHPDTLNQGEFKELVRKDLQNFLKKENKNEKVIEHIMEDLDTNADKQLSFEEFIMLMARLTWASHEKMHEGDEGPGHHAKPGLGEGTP

[2] = target: T2, S100A9(C3S) with K106A (S100A9 subunit of CP-Ser(K106A)) (human, UniProt P06702 1-114, C3S | K106A)
T2 sequence (looked up): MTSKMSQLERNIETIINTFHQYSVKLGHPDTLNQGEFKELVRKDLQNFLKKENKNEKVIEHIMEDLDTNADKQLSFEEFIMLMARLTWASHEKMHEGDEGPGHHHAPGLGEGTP

[3] = target: T3, S100A9(C3S) with E111A (S100A9 subunit of CP-Ser(E111A)) (human, UniProt P06702 1-114, C3S | E111A)
T3 sequence (looked up): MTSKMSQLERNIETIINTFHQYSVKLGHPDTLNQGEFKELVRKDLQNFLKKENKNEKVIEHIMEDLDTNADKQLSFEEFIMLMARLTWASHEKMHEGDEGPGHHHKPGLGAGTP

[4] = target: T4, S100A9(C3S) (human, UniProt P06702 1-90, C3S)
T4 sequence: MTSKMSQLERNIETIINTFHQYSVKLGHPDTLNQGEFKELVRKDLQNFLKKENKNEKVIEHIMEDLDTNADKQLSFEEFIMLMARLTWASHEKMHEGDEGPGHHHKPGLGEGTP

[5] = target: T5, S100A9(C3S) truncated after residue 101 (S100A9 subunit of CP-Ser-Δ101) (human, UniProt P06702 1-90, C3S)
T5 sequence: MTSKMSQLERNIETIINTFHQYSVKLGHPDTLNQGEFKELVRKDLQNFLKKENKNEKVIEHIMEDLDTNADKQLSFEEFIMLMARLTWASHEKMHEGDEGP

[6] = target: T6, human-mouse S100A9 chimera (S100A9 subunit of CP-Ser-mT) (human | mouse, UniProt P06702 1-90, C3S)
T6 sequence: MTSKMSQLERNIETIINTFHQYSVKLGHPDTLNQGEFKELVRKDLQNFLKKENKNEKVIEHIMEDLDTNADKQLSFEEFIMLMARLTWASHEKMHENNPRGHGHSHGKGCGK

[7] = target: T7, S100A9(C3S) with E96A (S100A9 subunit of CP-Ser(E96A)) (human, UniProt P06702 1-114, C3S | E96A)
T7 sequence (looked up): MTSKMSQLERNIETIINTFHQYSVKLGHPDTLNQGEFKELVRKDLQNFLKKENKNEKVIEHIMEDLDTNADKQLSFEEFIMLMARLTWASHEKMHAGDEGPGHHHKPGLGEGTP

[8] = target: T8, S100A9(C3S) with D98A (S100A9 subunit of CP-Ser(D98A)) (human, UniProt P06702 1-114, C3S | D98A)
T8 sequence (looked up): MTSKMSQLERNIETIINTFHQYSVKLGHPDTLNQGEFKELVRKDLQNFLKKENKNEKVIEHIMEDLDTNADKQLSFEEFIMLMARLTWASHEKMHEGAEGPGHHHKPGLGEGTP

[9] = target: T9, S100A9(C3S) with E99A (S100A9 subunit of CP-Ser(E99A)) (human, UniProt P06702 1-114, C3S | E99A)
T9 sequence (looked up): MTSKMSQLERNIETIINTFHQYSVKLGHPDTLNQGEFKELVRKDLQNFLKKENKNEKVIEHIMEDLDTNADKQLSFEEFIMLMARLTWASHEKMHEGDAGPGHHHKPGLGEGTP

[10] = target: T10, S100A9(C3S) with H103A (S100A9 subunit of CP-Ser(H103A)) (human, UniProt P06702 1-114, C3S | H103A)
T10 sequence (looked up): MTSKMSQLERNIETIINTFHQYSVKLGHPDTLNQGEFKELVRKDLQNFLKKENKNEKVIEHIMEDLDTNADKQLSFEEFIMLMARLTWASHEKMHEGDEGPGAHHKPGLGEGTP

[11] = target: T11, S100A9(C3S) with H104A (S100A9 subunit of CP-Ser(H104A)) (human, UniProt P06702 1-114, C3S | H104A)
T11 sequence (looked up): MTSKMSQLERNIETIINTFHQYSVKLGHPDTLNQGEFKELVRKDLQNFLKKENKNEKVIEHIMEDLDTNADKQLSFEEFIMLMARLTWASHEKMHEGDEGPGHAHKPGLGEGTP

Measured: binding result

B1: S100A8(C42S) (natural protein, human)
chain: MLTELEKALNSIIDVYHKYSLIKGNFHAVYRDDLKKLLETESPQYIRKKGADVWFKELDINTDGAVNFQEFLILVIKMGVAAHKKSHEESHKE
binds: [1] | [2] | [3] | [4] | [5] | [6] | [7] | [8] | [9] | [10] | [11]
